Data taken from patent US20250388666A1 (BRIGHAM AND WOMEN S HOSPITAL, published 2025).
Numbering of substitutions follows the chain as printed. In names and notes the source's numbering stands.

Columns and labels:
human GST-CEACAM1 = biological target: T1, human GST-CEACAM1 (human, UniProt P13688 35-141, limits assumed); test: competition ELISA vs murine parent antibody
T1 construct: printed both as GST-CEACAM1 and CEACAM1-GST; also called human CEACAM1-GST protein; hCEACAM1-GST; not shown: GST tag
T1 sequence: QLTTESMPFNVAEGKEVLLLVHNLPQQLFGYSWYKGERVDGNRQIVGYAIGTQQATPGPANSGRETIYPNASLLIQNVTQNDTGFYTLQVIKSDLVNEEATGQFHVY
Method: The binding of the purified chimeric antibody to human CEACAM1 was assessed in a competition ELISA assay. Nunc Immuno MaxiSorp 96 well flat bottom microtitre plates were pre-coated with 1 μg/ml human GST-CEACAM1 in 1×PBS, overnight at 4° C. The following day the plates were blocked for 1 hour at room temperature with 2% BSA/PBS before washing 2× with PBS/0.05% Tween 20 pH 7.4.
The binding of the purified antibodies to human CEACAM1 were assessed in a competition ELISA assay as described above. The ability of each variant to compete against the murine parental antibody for binding to the GST-CEACAM1 was compared to that of the chimeric antibody (VH0/Vκ0), which was included on each plate.

[1] = biological target: T2, CEACAM1-HIS (Sino Biologics Inc.) (Homo sapiens (Human), UniProt P13688 35-428); test: SPR single-cycle, IgG on Protein A
T2 construct: bought; not shown: His tag
T2 sequence: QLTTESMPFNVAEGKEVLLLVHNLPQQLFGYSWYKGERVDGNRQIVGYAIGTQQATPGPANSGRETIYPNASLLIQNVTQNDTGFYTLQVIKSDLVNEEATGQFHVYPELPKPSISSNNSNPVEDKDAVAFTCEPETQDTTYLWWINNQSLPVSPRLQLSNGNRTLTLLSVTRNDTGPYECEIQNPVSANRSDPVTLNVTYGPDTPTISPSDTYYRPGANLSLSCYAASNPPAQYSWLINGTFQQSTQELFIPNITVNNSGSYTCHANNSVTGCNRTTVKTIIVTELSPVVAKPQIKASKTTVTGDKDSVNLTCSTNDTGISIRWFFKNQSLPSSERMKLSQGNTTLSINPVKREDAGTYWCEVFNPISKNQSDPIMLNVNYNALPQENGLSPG
Method: As an alternative approach to assess the binding of the antibody combinations and the control antibodies to CEACAM1, a kinetic analysis was performed on a Biacore T200 running Biacore T200 Evaluation Software V2.0.1. All experiments were run at 25° C. with HBS-P+ running buffer (pH 7.4).
In order to assess the binding of all Composite Human Antibody™ variants, single cycle kinetic analysis was performed on the supernatants of all the transiently transfected HEK EBNA cells. Purified chimeric antibody and purified chimeric antibody spiked into HEK EBNA media were used as positive controls. Supernatants were diluted in HBS-P+ to a concentration of 1 μg/mL (as determined by an IgG quantitation ELISA). At the start of each cycle, antibodies were loaded onto Fc2, Fc3 and Fc4 of a Protein A chip and captured at a flow rate of 8 μL/min to give an RU of ˜100. The surface was then allowed to stabilize. Single cycle kinetic data was obtained at a flow rate of […] to minimize any potential mass transfer effects. Multiple repeats of the chimeric antibody were performed to check the stability of the surface and analyte over the kinetic cycles. The signal from the reference channel Fc1 (no antibody) was subtracted from that of Fc2, Fc3 and Fc4 to correct for differences in non-specific binding to a reference surface. A 5 point 2-fold dilution range from 3.125 to 50 nM CEACAM1 without regeneration between each concentration was used. The association phase for the 5 injections of increasing concentrations of CEACAM1 was monitored for 150 seconds and a single dissociation phase was measured for 150 seconds following the last injection of CEACAM1. Regeneration of the Protein A was conducted using 2 injections of 10 mM glycine-HCL pH 1.5 followed by a stabilization period of 500 seconds.
In the raw sensorgrams for the single cycle kinetics, the signal from each antibody blank run (no CEACAM1) was subtracted to correct for differences in surface stability.

[2] = biological target: T3, CEACAM1 (Sino Biological) (human, UniProt P13688 35-428, limits assumed); test: SPR single-cycle
T3 construct: may be the same as CEACAM1-HIS; also called hCEACAM1; biotinylated soluble CEACAM1
T3 sequence: T2 sequence
In short: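 Humanized affinity-matured IgGs from crude supernatants captured on Protein A to ~100 RU, with CEACAM1 analyte injected at 25–100 nM (three-point, two-fold) in HBS-P+ without regeneration. 200 s association per injection, 300 s single dissociation; reference-channel and blank subtracted.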

B1: VH0/Vκ1 (antibody, V domains shown)
VH: EVQLVESGGDLVKPGGSLKLACAASGFIFSSHGMSWVRQTPDKRLEWVATISSGGTYTYYPDSVKGRFTISRDNDKNTLYLQMNSLKSEDTAMYYCARHDFDYDAAWFAYWGQGTLVTVSS
VL: QIVLTQSPALLSLSPGERATMSCSANSSVSYMYWYRQKPGQAPKPWIYLTSNLASGVPARFSGSGSGTDYTLTISSLEAEDFATYYCQQWSSNPPTFGQGTKLEIK
average relative IC50 (normalized to chimeric antibody) (human GST-CEACAM1): 2.5 ratio
Kd [1]: 56.1 nM
relative KD to chimeric parental antibody [1]: 1.3 ratio

B2: VH4/Vκ1 (antibody, V domains shown)
VH: EVQLLESGGGLVQPGGSLRLSCAASGFIFSSHGMSWVRQAPGKGLEWVSTISSGGTYTYYADSVKGRFTISRDNSKNTLYLQMNSLRAEDTAVYYCARHDFDYDAAWFAYWGQGTLVTVSS
VL: B1 VL
Kd [1]: 243 nM
relative KD to chimeric parental antibody [1]: 5.6 ratio

B3: VH4/Vκ2 (antibody, V domains shown)
VH: B2 VH
VL: B1 VL with Q1E, L10T, M21L, S24R, R36Q, K44R, L53R, S55T, A79P
Kd [1]: 3950 nM
relative KD to chimeric parental antibody [1]: 91.4 ratio

B4: VH3/Vκ1 (antibody, V domains shown)
VH: B2 VH with S49A, V93M
VL: B1 VL
Kd [1]: 1500 nM
relative KD to chimeric parental antibody [1]: 34.7 ratio

B5: VH3/Vκ2 (antibody, V domains shown)
VH: B2 VH with S49A, V93M
VL: B1 VL with Q1E, L10T, M21L, S24R, R36Q, K44R, L53R, S55T, A79P
Kd [1]: 265 nM
relative KD to chimeric parental antibody [1]: 6.1 ratio

B6: He17/L20 (antibody, IgG4, V domains shown)
VH: EVQLLESGGGLVQPGGSLRLSCAASGFSFSDYYLYWVRQAPGKGLEWVATISVGGGQTSYADSVKGRFTISRDNSKNTLYLQMNSLRAEDTAMYYCTRARTYGPAWFAYWGQGTLVTVSS
VL: DIVMTQSPDSLAVSLGERATINCKSSQSLLNSANQKNYLAWYQQKPGQPPKLLIYFASTRESGVPDRFSGSGSGTDFTLTISSLQAEDVAVYYCQSHFPYPLTFGGGTKVEIK
notes: IgG4 S241P, kappa
Kd [2]: 99 nM
fold better than Parent (KD) [2]: 1.61 fold

B7: VH1/Vκ0 (antibody, IgG4, V domains shown)
VH: B6 VH with Q57N, A61P, A99G, R100L, T101Y
VL: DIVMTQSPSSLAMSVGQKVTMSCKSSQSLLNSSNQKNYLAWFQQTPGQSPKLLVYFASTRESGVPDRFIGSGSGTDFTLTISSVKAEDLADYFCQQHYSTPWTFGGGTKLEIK
notes: IgG4 (S241P), kappa
average relative IC50 (normalized to chimeric antibody) (human GST-CEACAM1): 1 ratio
Kd [1]: 76.6 nM
relative KD to chimeric parental antibody [1]: 1.8 ratio

B8: Parent VH/L2 (antibody, IgG4, V domains shown)
VH: B6 VH with A99G, R100L, T101Y
VL: B6 VL with F98Y, Y100F, L102Y
notes: IgG4 S241P, kappa
Kd [2]: 70 nM
fold better than Parent (KD) [2]: 2.26 fold

B9: He17/Parent VL (antibody, IgG4, V domains shown)
VH: B6 VH
VL: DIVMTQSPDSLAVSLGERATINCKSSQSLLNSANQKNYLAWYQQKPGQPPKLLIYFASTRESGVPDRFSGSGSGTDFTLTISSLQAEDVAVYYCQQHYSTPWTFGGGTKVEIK
notes: IgG4 S241P, kappa
Kd [2]: 128 nM
fold better than Parent (KD) [2]: 1.24 fold

B10: Parent VH/L17 (antibody, IgG4, V domains shown)
VH: B6 VH with A99G, R100L, T101Y
VL: B6 VL with F98Y, L102Y
notes: IgG4 S241P, kappa
Kd [2]: 76 nM
fold better than Parent (KD) [2]: 2.08 fold

B11: Parent VH/L20 (antibody, IgG4, V domains shown)
VH: B6 VH with A99G, R100L, T101Y
VL: B6 VL
notes: IgG4 S241P, kappa
Kd [2]: 87 nM
fold better than Parent (KD) [2]: 1.83 fold

B12: VH2/Vκ4 (antibody, IgG4, V domains shown)
VH: B6 VH with Q57N, A99G, R100L, T101Y
VL: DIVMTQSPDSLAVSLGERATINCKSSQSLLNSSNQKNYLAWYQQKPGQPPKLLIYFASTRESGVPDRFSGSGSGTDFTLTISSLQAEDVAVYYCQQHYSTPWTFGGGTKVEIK
notes: IgG4 (S241P), kappa
average relative IC50 (normalized to chimeric antibody) (human GST-CEACAM1): 7.2 ratio
Kd [1]: 77.8 nM
relative KD to chimeric parental antibody [1]: 1.8 ratio

B13: Parent VH/L3 (antibody, IgG4, V domains shown)
VH: B6 VH with A99G, R100L, T101Y
VL: B6 VL with Y100F, L102F
notes: IgG4 S241P, kappa
Kd [2]: 63 nM
fold better than Parent (KD) [2]: 2.53 fold

B14: Parent VH/L19 (antibody, IgG4, V domains shown)
VH: B6 VH with A99G, R100L, T101Y
VL: B6 VL with F98I, P99Y, Y100P, P101N, L102F
notes: IgG4 S241P, kappa
Kd [2]: 77 nM
fold better than Parent (KD) [2]: 2.08 fold

B15: Parent VH/L5 (antibody, IgG4, V domains shown)
VH: B6 VH with A99G, R100L, T101Y
VL: B6 VL with F98Y, Y100F, P101A, L102F
notes: IgG4 S241P, kappa
Kd [2]: 66 nM
fold better than Parent (KD) [2]: 2.42 fold

B16: Parent VH/L6 (antibody, IgG4, V domains shown)
VH: B6 VH with A99G, R100L, T101Y
VL: B6 VL with F98Y, Y100F, P101S, L102F
notes: IgG4 S241P, kappa
Kd [2]: 57 nM
fold better than Parent (KD) [2]: 2.81 fold

B17: Parent VH/L4 #1 (antibody, IgG4, V domains shown)
VH: B6 VH with A99G, R100L, T101Y
VL: B6 VL with P101Y, L102Y
notes: IgG4 S241P, kappa
Kd [2]: 103 nM
fold better than Parent (KD) [2]: 1.54 fold
